Patent publication US20130109581A1, “POSITIVELY CHARGED SPECIES AS BINDING REAGENTS IN THE SEPARATION OF PROTEIN AGGREGATES FROM MONOMERS” (priority 2009, published 2013)
Read-outs that look alike come from different tables or passages of the source.

Key:
Abeta 1-42 globulomer [1] = target: Abeta 1-42 globulomer (UniProt P05067)
Abeta 1-42 monomer [2] = target: Abeta 1-42 monomer (UniProt P05067); test: MPA, unspiked CSF background, ASB-14 wash
Abeta 1-42 monomer [3] = target: Abeta 1-42 monomer (UniProt P05067); test: MPA, unspiked CSF background, ZW3-16 wash
Abeta 1-42 monomer [4] = target: Abeta 1-42 monomer (UniProt P05067); test: MPA, unspiked CSF background, Brij 35 wash
Abeta 1-42 globulomer [5] = target: Abeta 1-42 globulomer (UniProt P05067); test: MPA, CSF + 0.5 ng/mL globulomer, ASB-14 wash
Abeta 1-42 globulomer [6] = target: Abeta 1-42 globulomer (UniProt P05067); test: MPA, CSF + 0.5 ng/mL globulomer, ZW3-08 wash
Abeta 1-42 globulomer [7] = target: Abeta 1-42 globulomer (UniProt P05067); test: MPA, CSF + 0.5 ng/mL globulomer, ZW3-14 wash
Abeta 1-42 globulomer [8] = target: Abeta 1-42 globulomer (UniProt P05067); test: MPA, pulldown in CSF, no added detergent wash
Abeta 1-42 monomer [9] = target: Abeta 1-42 monomer (UniProt P05067); test: MPA, unspiked CSF background, Pluronic F-127 wash
Abeta 1-42 globulomer [10] = target: Abeta 1-42 globulomer (UniProt P05067); test: MPA, PSR1 beads, globulomer spiked into normal CSF
Abeta 1-42 globulomer [11] = target: Abeta 1-42 globulomer (UniProt P05067); test: MPA, 0.5 over 0 ng/mL globulomer in CSF, ASB-16 wash
Abeta 1-42 globulomer [12] = target: Abeta 1-42 globulomer (UniProt P05067); test: MPA, 0.5 over 0 ng/mL globulomer in CSF, ZW3-08 wash
Abeta 1-42 globulomer [13] = target: Abeta 1-42 globulomer (UniProt P05067); test: MPA, 0.5 over 0 ng/mL globulomer in CSF, ZW3-12 wash
Abeta 1-42 globulomer [14] = target: Abeta 1-42 globulomer (UniProt P05067); test: MPA, 0.5 over 0 ng/mL globulomer in CSF, Brij 35 wash
Abeta 1-42 globulomer [15] = target: Abeta 1-42 globulomer (UniProt P05067); test: MPA, 0.5 over 0 ng/mL globulomer in CSF, Empigen wash
ASPD (Abeta42 aggregate) = ASPD (Abeta42 aggregate) (UniProt P05067); test: MPA, serial dilutions in CSF, LoD = 2x over background
Abeta 1-42 globulomer [16] = target: Abeta 1-42 globulomer (UniProt P05067); test: as above
Abeta 1-42 monomer [17] = target: Abeta 1-42 monomer (UniProt P05067); test: as above
Abeta 1-42 globulomer [18] = target: Abeta 1-42 globulomer (UniProt P05067); test: MPA, PSR1 beads, globulomer spiked into buffer (TBSTT)
Abeta 1-42 globulomer [19] = target: Abeta 1-42 globulomer (UniProt P05067); test: MPA, 0.5 over 0 ng/mL globulomer in CSF, Pluronic F-127 wash
[20] = target: Abeta (1-42) aggregates from Alzheimer's Disease Brain Homogenate (human) (UniProt P05067); test: MPA, serial dilutions of ADBH in CSF, LoD = 2x over background
Abeta 1-42 globulomer [21] = target: Abeta 1-42 globulomer (UniProt P05067); test: MPA, globulomer Abeta 42 RLU over average Abeta 40 RLU, ZW3-08 wash

Work on “PSR1 (peptoid, directly conjugated to Dynal M270 beads)” yielded a LoD of globulomer, RLU (S/N = 2) (Abeta 1-42 globulomer [1]) of 199 RLU, a LoD of globulomer, pg/mL (Cal) (Abeta 1-42 globulomer [1]) of 2.33 pg/mL and a S/N at 25.3 pg/mL (Abeta 1-42 globulomer [1]) of 10.3. The Abeta 42 RLU, 0 ng/mL Average (Abeta 1-42 monomer [2]) was 89.7 RLU, the Abeta 42 RLU, 0 ng/mL Average (Abeta 1-42 monomer [3]) was 67 RLU and the Abeta 42 RLU, 0 ng/mL Average (Abeta 1-42 monomer [4]) was 117 RLU. It also gave an Abeta 42 RLU, 0.5 ng/mL Average (Abeta 1-42 globulomer [5]) of 779 RLU, an Abeta 42 RLU, 0.5 ng/mL Average (Abeta 1-42 globulomer [6]) of 669 RLU and an Abeta 42 RLU, 0.5 ng/mL Average (Abeta 1-42 globulomer [7]) of 842 RLU. The LoD of globulomer, RLU (S/N = 2) (Abeta 1-42 globulomer [8]) was 456 RLU, the LoD of globulomer, pg/mL (Cal) (Abeta 1-42 globulomer [8]) was 6.16 pg/mL and the S/N at 25.3 pg/mL (Abeta 1-42 globulomer [8]) was 5.7. The Abeta 42 RLU, 0 ng/mL Average (Abeta 1-42 monomer [9]) was 117 RLU, the limit of detection (LoD) (Abeta 1-42 globulomer [10]) was 10 pM and the S/N Abeta 42 globulomer-spiked/unspiked (Abeta 1-42 globulomer [11]) was 8.2. For the same substance, the S/N Abeta 42 globulomer-spiked/unspiked (Abeta 1-42 globulomer [12]) was 6.8, the S/N Abeta 42 globulomer-spiked/unspiked (Abeta 1-42 globulomer [13]) was 7.1 and the S/N Abeta 42 globulomer-spiked/unspiked (Abeta 1-42 globulomer [14]) was 6.3. It also gave a S/N Abeta 42 globulomer-spiked/unspiked (Abeta 1-42 globulomer [15]) of 8.7, a LoD (ASPD (Abeta42 aggregate)) of 200 pg/mL and a LoD (amol) (ASPD (Abeta42 aggregate)) of 20 amol. For the same substance, the LoD (Abeta 1-42 globulomer [16]) was 75 pg/mL, the LoD (amol) (Abeta 1-42 globulomer [16]) was 140 amol and the LoD (Abeta 1-42 monomer [17]) was 1000 pg/mL. The LoD (amol) (Abeta 1-42 monomer [17]) was 22000 amol, the limit of detection (LoD) (Abeta 1-42 globulomer [18]) was 5 pM and the S/N Abeta 42 globulomer-spiked/unspiked (Abeta 1-42 globulomer [19]) was 6.3. It also gave a LoD (amol) [20] of less than 0.2 amol and a S/N Abeta 42 globulomer-spiked/Abeta 40 (Abeta 1-42 globulomer [21]) of 0.9.
